The text below walks through data of article PMC6375729.

Test [1] has as its target BRD4 first bromodomain (BD1), N44-E168 (human) (UniProt O60885). Description: ITC; peptide in the syringe titrated into protein in the cell; 15 °C; 50 mM HEPES pH 7.5, 150 mM NaCl; single binding site model.
Test [2] deals with BRD4 second bromodomain (BD2), D334-E460 (human) (UniProt O60885). Described as above.
The target in test [3] is BRD4 first bromodomain (BRD4/BD1) (human) (UniProt O60885). Description: ITC; peptide titrated into BRD4/BD1 or BRD4/BD2 in the cell; 50 mM HEPES pH 7.5 (at 25°C), 150 mM NaCl, 15°C, stirring at 1,000 rpm; single-site binding model.
Test [4] concerns the target BRD4 second bromodomain (BRD4/BD2) (human) (UniProt O60885). Described as above.
The target in the next test is BRD4 BD1, 44-168 (UniProt O60885). Nature of the test: isothermal titration calorimetry. The conditions noted are these: reference: H3 K9ac/K14ac peptide.
The target in another test is BRD4 BD2, 334-460 (UniProt O60885). Description: isothermal titration calorimetry. The following applies: reference: H3 K9ac/K14ac peptide.
For test [5], the target named is BRD4 first bromodomain (BD1), N44-E168 (human) (UniProt O60885). Description: ITC; peptide titrated into protein; 100 mM Na3PO4 pH 8.0, 150 mM NaCl; single binding site model.
Test [6] concerns the target BRD4 second bromodomain (BD2), D334-E460 (human) (UniProt O60885). The description is as above.
Test [7] has as its target BRD4 first bromodomain (BD1), N44-E168 (human) (UniProt O60885). Description: ITC; salt series: 15 °C, 300 mM NaCl; the sheet's heads give [Protein] 1055 uM and [Peptide] 45 uM.
The target is the same in test [8]. Description: ITC; salt series: 15 °C, 450 mM NaCl; the sheet's heads give [Protein] 1085 uM and [Peptide] 45 uM.
Test [9] has the same target. Description: ITC; salt series: 15 °C, 1000 mM NaCl; the sheet's heads give [Protein] 1042 uM and [Peptide] 42 uM.
For test [10] the target is unchanged. Nature of the test: ITC; temperature series: 5 °C, 150 mM NaCl; the sheet's heads give [Protein] about […] and [Peptide] about 45 uM.
For test [11] the target is unchanged. Description: ITC; temperature series: 20 °C, 150 mM NaCl; [Protein] about 1050-1063 uM and [Peptide] 42-46 uM.
The target is the same in test [12]. Description: ITC; temperature series: 25 °C, 150 mM NaCl; [Protein] about 1050-1063 uM and [Peptide] 42-46 uM.
Test [13] has the same target. Nature of the test: ITC; temperature series: 30 °C, 150 mM NaCl; [Protein] about 1050-1063 uM and [Peptide] 42-46 uM.
For test [14] the target is unchanged. Description: ITC; temperature and salt series: 15 °C, 150 mM NaCl; the sheet's heads give [Protein] about 1060 uM and [Peptide] 42-51 uM.
The target in test [15] is BRD4 second bromodomain (BRD4/BD2) (human) (UniProt O60885). Nature of the test: ITC; peptide titrated into BRD4/BD1 or BRD4/BD2 in the cell; 100 mM Na3PO4 pH 8.0, 150 mM NaCl, 15°C, stirring at 1,000 rpm; single-site binding model.
In test [16] the target is BRD4 first bromodomain (BRD4/BD1), hexa-His tag cleaved (human) (UniProt O60885). Description: ITC; peptide (1226 - 1433 μM) in the syringe, protein (36 - 59 μM) in the cell, 15°C, 50 mM HEPES pH 7.5, 150 mM NaCl, single binding site model.

Consider SIRT7 K272ac/K275ac peptide, for which, in [1], the Kd came to 15.8 µM and the stoichiometry N came to 0.52. In [2], this substance yielded a Kd of 44.4 µM and a stoichiometry N of 0.87.

As for TOP2A K1201ac/K1204ac peptide, the Kd in test [1] is 19.5 µM; in [2], 63.3 µM; in test [3], 19.5 µM; in [4], 63.3 µM. The stoichiometry N in test [1] turned out to be 0.85; in test [2] it was 0.51.

As to “histone H3 (from UniProt P68431) H3 K9ac/pT11/K14ac peptide”, the “binding against the reference” value with BRD4 BD1, 44-168 (sites T11) is on record as “lost”; with BRD4 BD2, 334-460 (sites T11), “lost”.

SRPK1 K585ac/K588ac peptide: the stoichiometry N worked out at 0.92 in test [5]; 1.11 in [6]; 1.02 in test [7]; 1.01 in test [8]; 0.96 in [9]; 1.01 in [10]. For the same substance, the stoichiometry N was found to be 1.14 in test [11], 1.12 in test [12], 1.12 in test [13] and 1.16 in [14]. Further, the Kd in [6] was found to be 29.7 µM; in [7] it was 48.5 µM; in [8], 58.5 µM; in test [9] it was 71.4 µM; in test [10] it was 49 µM; in [11], 48.8 µM. Besides, the Kd was 40.2 µM in test [12], 46.3 µM in test [13], 45.7 µM in test [14] and 29.7 µM in test [15].

As for GATA1 K312ac/K315ac peptide, the equilibrium dissociation constant (Kd) in test [1] is 24.6 µM; in [2], 62.9 µM; in test [3], 24.6 µM; in test [4], 62.9 µM. In addition, the stoichiometry N turned out to be 0.94 in test [1] and 0.96 in test [2].

In the case of E2F1 K117ac/K120ac peptide, the Kd in [1] was determined as 45.8 µM; in test [2], 34.8 µM; in test [3] it was 45.8 µM; in test [4], 34.8 µM. Moreover, the results for the stoichiometry N in test [1] and in test [2] were 0.9 and 0.56, respectively.

Regarding SRPK1 (K585acY) peptide used for ITC, in [16], the Kd came out at 9.9 µM.

As for ATRX K1030ac/K1033ac peptide, the Kd in [1] was 87.7 µM; in test [2] it was 25.3 µM; in [3], 87.7 µM; in test [4] it was 25.3 µM. In addition, the stoichiometry N in test [1] amounted to 0.99; in test [2] it was 0.49.

With “histone H3 (from UniProt P68431) H3 K9ac/pS10/K14ac peptide”, the “binding against the reference” value is “same” in the test with BRD4 BD1, 44-168 (sites S10) and “lost” in the test with BRD4 BD2, 334-460 (sites S10).
